Like-named read-outs stand apart in the source and are kept apart here. Blank lines part the entries; values can stand above or below the binder they belong to. Non-standard residues stand in square brackets, D forms with d. Groups on a side chain read outwards from the residue. Primed or numbered codes have the meaning given here. No end group written: not given here. *: point of attachment. OCPT = camptothecin (CPT) attached as an ester, CC[C@@]1(O*)C(=O)OCc2c1cc1n(c2=O)Cc2cc3ccccc3nc2-1; Propanoyl(3-maleimido) = O=C1C=CC(=O)N1CCC(=O)*; PEG4′ = tetraethylene glycol; Dab = NCC[C@H](N)C(=O)O; CO′ = not defined here; Dap = NC[C@H](N)C(=O)O; CPT = Camptothecin; AF = auristatin F; Sar = CNCC(=O)O
Tests used:
Assay in all cases: cell-based or functional assay
[1] = biological target: T1, Recombinant human Cathepsin B (human, UniProt P07858 80-333)
[2] = biological target: T1, Recombinant human Cathepsin B; remark: listed apart in the source
[3] = biological target: T1, Recombinant human Cathepsin B; remark: listed apart in the source
[4] = biological target: T1, Recombinant human Cathepsin B; remark: listed apart in the source

Ratio (T1/2 Compound/T1/2 Reference) [1]: 0.03
Binder: FKKFFK (Ac-Cys-Mal-PEG4 at the N-terminus; Lys(Mal-DM1)) [Compound 28, Ac-Cys-Mal-PEG4-Phe-Lys-Lys(Mal-DM1)-Phe-Phe-Lys-OH]

Ratio (T1/2 Compound/T1/2 Reference) [1]: 0.005
Binder: FXKY (Ac-Cys-Ma-PEG5 at the N-terminus; citrulline (Cit); Lys(Mcc-DM1)) [Compound 27, Ac-Cys-Ma-PEG5-Phe-Cit-Lys(Mcc-DM1)-Tyr-OH]

Ratio (T1/2 Compound/T1/2 Reference) [2]: 0.005
Binder: FXKY (DM1-Mcc on the N-terminus of Phe; citrulline (Cit); Lys(PEG5-Ma-Cys-Ac)) [Compound 22, DM1-Mcc-Phe-Cit-Lys(PEG5-Ma-Cys-Ac)-Tyr-OH]

Ratio (T1/2 Compound/T1/2 Reference) [3]: 0.07
Binder: FRKRKF (Ac-Cys-Mal-PEG4 at the N-terminus; Lys(Mal-DM1); Lys(AF)) [Compound 30, Ac-Cys-Mal-PEG4-Phe-Arg-Lys(Mal-DM1)-Arg-Lys(AF)-Phe-OH]

Ratio (T1/2 Compound/T1/2 Reference) [2]: 4e-05
B2: Compound 23, DM1-Mcc-Cit-Lys(PEG5-Ma-Cys-Ac)-Tyr-OH (peptide)
peptide: XKY
modifications: X at position 1 is citrulline (Cit); DM1-Mcc on the N-terminus; Lys 2 side chain carries PEG5-Ma-Cys-Ac

Ratio (T1/2 Compound/T1/2 Reference) [4]: 0.08
Binder: XKFKF (AF at the N-terminus; citrulline (Cit); Lys(Mal-DM1); Lys(PEG4-Mal-Cys-Ac)) [Compound 31, AF-Cit-Lys(Mal-DM1)-Phe-Lys(PEG4-Mal-Cys-Ac)-Phe-OH]

Ratio (T1/2 Compound/T1/2 Reference) [2]: 0.09
B4: Compound 19, AF-Cit-Lys(PEG4-Mal-Cys-Ac)-Phe-OH (peptide)
peptide: XKF
modifications: X at position 1 is citrulline (Cit); N-terminus acylated with auristatin F (AF); Lys 2 side chain carries PEG4-Mal-Cys-Ac

Ratio (T1/2 Compound/T1/2 Reference) [3]: 0.23
Binder: FKKFFKKF (Ac-Cys-Mal-PEG4 at the N-terminus; two Lys(Mal-DM1)) [Compound 29, Ac-Cys-Mal-PEG4-[Phe-Lys-Lys(Mal-DM1)-Phe]2-OH]

Further lines, the binder ahead of its results:

Binder: FXFK (DM1-Mal on the N-terminus of Phe; citrulline (Cit); Lys(PEG4-Mal-Cys-Ac)) [Compound 7, DM1-Mal-Phe-Cit-Phe-Lys(PEG4-Mal-Cys-Ac)-OH]
Ratio (T1/2 Compound/T1/2 Reference) [2]: 0.09

Binder: {Ac-Cys-Propanoyl(3-maleimido)-PEG4′}-FKK(AF)F-OH [Compound 13, Ac-Cys-Mal-PEG4-Phe-Lys-Lys(AF)-Phe-OH]
Ratio (T1/2 Compound/T1/2 Reference) [1]: 0.15

Binder: R[PEG4′]FRS([CO′-CPT])F-OH [Compound 11, Arg-PEG4-Phe-Arg-Ser(CO-CPT)-Phe-OH]
Ratio (T1/2 Compound/T1/2 Reference) [1]: 0.2

B1: Compound 1, AF-Arg-Lys(PEG4-Mal-Cys-Ac)-Phe-OH (peptide)
peptide: RKF
modifications: N-terminus acylated with auristatin F (AF); Lys 2 side chain carries PEG4-Mal-Cys-Ac
Ratio (T1/2 Compound/T1/2 Reference) [2]: 0.12

B3: Compound 3, AF-Arg-Phe-Lys(PEG4-Mal-Cys-Ac)-OH (peptide)
peptide: RFK
modifications: N-terminus acylated with auristatin F (AF); Lys 3 side chain carries PEG4-Mal-Cys-Ac
Ratio (T1/2 Compound/T1/2 Reference) [2]: 0.11

Binder: R[PEG4′]FR[Dap](CO‑CPT)F-OH [Compound 9, Arg-PEG4-Phe-Arg-Dap(CO-CPT)-Phe-OH]
Ratio (T1/2 Compound/T1/2 Reference) [1]: 0.63

Binder: FXKF (DM1-Mal on the N-terminus of Phe; citrulline (Cit); Lys(PEG4-Mal-Cys-Ac)) [Compound 6, DM1-Mal-Phe-Cit-Lys(PEG4-Mal-Cys-Ac)-Phe-OH]
Ratio (T1/2 Compound/T1/2 Reference) [2]: 0.02

Binder: FKKF (DM1-Mal on the N-terminus of Phe; Lys(PEG4-Mal-Cys-Ac)) [Compound 5, DM1-Mal-Phe-Lys-Lys(PEG4-Mal-Cys-Ac)-Phe-OH]
Ratio (T1/2 Compound/T1/2 Reference) [2]: 0.05

Binder: R[PEG4′]FR[Dab](CO‑CPT)F-OH [Compound 10, Arg-PEG4-Phe-Arg-Dab(CO-CPT)-Phe-OH]
Ratio (T1/2 Compound/T1/2 Reference) [1]: 0.1

Binder: FKKF (Ac-Cys-Mal-PEG4 at the N-terminus; Lys(Mal-DM1)) [Compound 12, Ac-Cys-Mal-PEG4-Phe-Lys-Lys(Mal-DM1)-Phe-OH]
Ratio (T1/2 Compound/T1/2 Reference) [1]: 0.14

Binder: R[PEG4′]FRE([Sar-OCPT])F-OH [Compound 8, Arg-PEG4-Phe-Arg-Glu(Sar-OCPT)-Phe-OH]
Ratio (T1/2 Compound/T1/2 Reference) [1]: 0.19

— patent publication US20220062371A1 (DEBIOPHARM RESEARCH AND MANUFACTURING S A, published 2022)
